Measurements as given in patent US20190177400A1, “BIOLOGICAL UPGRADING OF HYDROCARBON STREAMS WITH NICKEL-BINDING PROTEINS” (ExxonMobil Research and Engineering Company, priority 2017, published 2019).
Like-named read-outs stand apart in the source and are kept apart here.

Key:
[1] = UV-VIS screening of binding and demetallation of Ni(II)-protoporphyrin (IX); assay type: biochemical; conditions: 50 μM porphyrin, 24 hrs, room temperature
Procedure: (§1) Three nickel- and one vanadium-containing model porphyrins (Ni(II)-protoporphyrin (IX); Ni(II)-meso-tetra-(4-carboxyphenyl) porphine; Ni(II)-meso-tetra-(N-methyl-4-pyridyl) porphine tetrachloride; & VO-meso-tetra-(N-methyl-4-pyridyl) porphine tetrachloride) were chosen as test substrates for the eight representative NBPs. […] The proteins' nickel- and vanadium-binding capabilities were assayed in a single phase, aqueous environment to eliminate mass transfer limitations that occur between multiple phases and stressful non-aqueous to conditions that may change protein structure and/or inhibit function. This approach minimizes false-negative results to maximize the number of potential protein candidates that can be identified.
A shift in the wavelength of maximal absorbance, commonly referred to as the “Soret band,” indicates a change in porphyrin conformation or a protein-porphyrin interaction.
(§2) To prepare crude protein, aliquots were thawed on ice and diluted 4-fold with protein assay buffer (PAB). To isolate purified nickel-binding proteins, protein aliquots were thawed on ice and proteins of interest were purified by HIS-tag-Ni-NTA column affinity followed by size exclusion chromatography with PD-10 desalting columns. Purified protein was eluted in PAB, collected in the first 2 mL PD-10 column flow-through fraction. Relative to the initial protein concentration, samples were diluted 4-fold to parallel crude protein samples.
(§3) Amber tubes were used for all assays to protect samples from light. Crude and purified protein samples were combined with porphyrin substrates, to achieve final concentrations in Table 3, and total assay volumes were raised to 10 mL with Tris buffer. Absorbance of a 2.4 mL sample was measured in a 1 cm quartz cuvette, at room temperature, 1 nm resolution, and 0.7 sec. integration time on an Evolution201® UV-VIS spectrophotometer with Thermo INSIGHT® software. Samples were incubated for 24 hrs. at room temperature and 75 RPM and their final UV-VIS absorbance spectra was measured. An absorbance baseline was collected using Tris buffer at the beginning of each time point and 1% error was observed between technical replicates.
(§4) Porphyrin Demetallation Calculation was calculated according to the formula (EVf−EXPf)÷EVo=% specific demetallation.

[2] = UV-VIS screening of binding and demetallation of Ni(II)-meso-tetra-(4-carboxyphenyl) porphine; assay type: biochemical; conditions: 10 μM porphyrin, 24 hrs
Procedure: as §1
UV-VIS spectroscopy was used for initial screening of protein activity against numerous model compounds because each model porphyrin has a characteristic UV-VIS absorbance spectrum. A shift in the wavelength of maximal absorbance, commonly referred to as the “Soret band,” indicates a change in porphyrin conformation or a protein-porphyrin interaction.
as §2
as §3, with “replicates. Crude, empty pET28b vector (EV) strain lysate protein and PAB only controls were run in parallel with experimental samples (EXP) for each porphyrin.” for “replicates.”
as §4

[3] = cited from earlier work
[4] = selective, repetitive treatment; cited from earlier work
[5] = UV-VIS screening of binding and demetallation of Ni(II)-meso-tetra-(N-methyl-4-pyridyl) porphine tetrachloride; assay type: biochemical; conditions: crude and purified protein, 10 μM porphyrin, 24 hrs
Procedure: as §1, with “This approach minimizes false-negative results to maximize the number of potential protein candidates that can be identified.” left out
(§5) UV-VIS spectroscopy was used for initial screening of protein activity against numerous model compounds because each model porphyrin has a characteristic UV-VIS absorbance spectrum. A shift in the wavelength of maximal absorbance, commonly referred to as the “Soret band,” indicates a change in porphyrin conformation or a protein-porphyrin interaction. […]
(§6) Amber tubes were used for all assays to protect samples from light. […] Absorbance of a 2.4 mL sample was measured in a 1 cm quartz cuvette, at room temperature, 1 nm resolution, and 0.7 sec. integration time on an Evolution201® UV-VIS spectrophotometer with Thermo INSIGHT® software. Samples were incubated for 24 hrs. at room temperature and 75 RPM and their final UV-VIS absorbance spectra was measured. […]

[6] = UV-VIS screening of binding and demetallation of VO-meso-tetra-(N-methyl-4-pyridyl) porphine tetrachloride; assay type: biochemical; conditions: crude and purified protein, 10 μM porphyrin, 24 hrs
Procedure: as §1, with “This approach minimizes false-negative results to maximize the number of potential protein candidates that can be identified.” left out
as §5, §6

[7] = site (24-His rich N-terminus; His2 and Glu2; micromolar Kd sites)

Molecule | reduction of Ni(II)-protoporphyrin (IX) Soret band (specific demetallation) ([1]; crude protein lysate) | reduction of Ni(II)-protoporphyrin (IX) Soret band (specific demetallation) ([1]; purified protein) | binding / demetallation (change of Soret band) ([2]; crude and purified protein) | other results
Hpn: nickel storage protein from H. pylori, SEQ ID NO 8; very small, histidine rich (MAHHEEQHGGHHHHHHHTHHHHYHGGEHHHHHHSSHHEEGCCSTSDSHHQEEGCCHGHHE; listed as Helicobacter pylori) | did not affect the Soret band |  |  | binding / demetallation (change of Soret band) ([2]; crude lysate only): did not affect the Soret band; affinities for nickel (II) ions ([3]; short repeating motifs, reversible binding): micromolar
HypA: nickel chaperone from H. pylori, SEQ ID NO 1, His-tagged, expressed in E. coli (protein, listed as Bradyrhizobium japonicum, His-tag) MCTVCGCSDGKASIEHAHDHHHDHGHDHDHGHDGHHHHHHGHDQDHHHHHDHAHGDAGLLDCGANPAGQKITGMSSDRIIQVERDILGKNDRLAADNRARFRADEVLAFNLVSSPGAGKTSLLVRAVSELKDSFAIGVIEGDQQTSNDAERIRATGVPAIQVNTGKGCHLDAAMVGEAYDRLPWLNGGLLFIENVGNLVCPAAFDLGEACKIVVFSTTEGEDKPLKYPDMFAASSLMLINKIDLASVLDFDLARTIEYARRVNPKIEVLTLSARTGEGFAAFYAWIRKRMAATTPAAMTAAE | did not display Ni(II)-protoporphyrin (IX) binding or demetallation capabilities | 59% | neither binding nor demetallation was observed | Ni-binding: Ni (II) ions bound ([3]; per dimer): 2 Ni (II) ions per Ni (II) per dimer
myoglobin conjugated to activated cellulose: myoglobin conjugated to activated cellulose, reported by Smith et al. (conjugate, UniProt P68082 2-154, looked up, conjugated to activated cellulose) Myoglobin: GLSDGEWQQVLNVWGKVEADIAGHGQEVLIRLFTGHPETLEKFDKFKHLKTEAEMKASEDLKKHGTVVLTALGGILKKKGHHEAELKPLAQSHATKHKIPIKYLEFISDAIIHVLHSKHPGDFGADAQGAMTKALELFRNDIAAKYKELGFQG |  |  |  | removal of V, Ni porphyrins [4]: up to 22%
E. coli HypB: nickel chaperone HypB from E. coli, SEQ ID NO 2 (protein, listed as Escherichia coli) MCTTCGCGEGNLYIEGDEHNPHSAFRSAPFAPAARPKMKITGIKAPEFTPSQTEEGDLHYGHGEAGTHAPGMSQRRMLEVEIDVLDKNNRLAERNRARFAARKQLVLNLVSSPGSGKTTLLTETLMRLKDSVPCAVIEGDQQTVNDAARIRATGTPAIQVNTGKGCHLDAQMIADAAPRLPLDDNGILFIENVGNLVCPASFDLGEKHKVAVLSVTEGEDKPLKYPHMFAAASLMLLNKVDLLPYLNFDVEKCIACAREVNPEIEIILISATSGEGMDQWLNWLETQRCA | 17% | 83% | Neither binding nor demetallation was observed | Kd of Ni-binding ([3]; N-terminal Ni binding domain): has micromolar; Kd of Ni-binding ([3]; SEQ ID NO: 12 binding sites in the C-terminal domain): subpicomolar; Ni-binding: Ni (II) ions bound ([3]; per monomer): 2 Ni (II) ions per Ni (II) per monomer
UreE: nickel chaperone from E. aerogenes, SEQ ID NO 5 (protein, Enterobacter aerogenes) MLYLTQRLEIPAAATASVTLPIDVRVKSRVKVTLNDGRDAGLLLPRGLLLRGGDVLSNEEGTEFVQVIAADEEVSVVRCDDPFMLAKACYHLGNRHVPLQIMPGELRYHHDHVLDDMLRQFGLTVTFGQLPFEPEAGAYASESHGHHHAHHDHHAHSH | remained unchanged | 17% | Neither binding nor demetallation | Ni-binding: Ni (II) ions bound ([3]; per dimer): 6 Ni (II) per Ni (II) per dimer
B. japonicum HypB: nickel chaperone HypB from B. japonicum, SEQ ID NO 3 (protein, listed as Helicobacter pylori) MHEYSVVSSLIALCEEHAKKNQAHKIERVVVGIGERSAMDKSLFVSAFETFREESLVCKDAVLDIVDEKVELECKDCSHVFKPNALDYGVCEKCHSKNVVITQGNEMRLLSLEMLAE | 29% | 99% | Neither binding nor demetallation was observed | binding / demetallation (change of Soret band) [5]: Neither binding to nor demetallation of these substrates was observed; binding / demetallation (change of Soret band) [6]: Neither binding to nor demetallation of these substrates was observed; Ni-binding: Ni (II) ions bound [3, 7]: 9 Ni (II) on 24-
NikR: metalloregulator from H. pylori, SEQ ID NO 7 (protein, listed as Escherichia coli) MRLLHTMLRVGDLQRSIDFYTKVLGMKLLRTSENPEYKYSLAFVGYGPETEEAVIELTYNWGVDKYELGTAYGHIALSVDNAAEACEKIRQNGGNVTREAGPVKGGTTVIAFVEDPDGYKIELIEEKDAGRGLGN | remained unchanged | 56% | Neither binding to nor demetallation was observed | Kd of Ni-binding ([3]; 4 Ni (II) per complex, coordinated by His88, His99, His101 & Cys107): nanomolar Kd; Ni-binding: Ni (II) ions bound ([3]; per complex, nanomolar Kd sites): 4 Ni (II) per Ni (II) per complex; Kd of Ni-binding ([3]; up to 10 Ni (II) sites): micromolar Kd
SlyD: nickel chaperone from E. coli, SEQ ID NO 4 (protein, listed as Escherichia coli) MKVAKDLVVSLAYQVRTEDGVLVDESPVSAPLDYLHGHGSLISGLETALEGHEVGDKFDVAVGANDAYGQYDENLVQRVPKDVFMGVDELQVGMRFLAETDQGPVPVEITAVEDDHVVVDGNHMLAGQNLKFNVEVVAIREATEEELAHGHVHGAHDHHHDHDHDGCCGGHGHDHGHEHGGEGCCGGKGNGGCGCH | 12% | no change was observed | only minimal changes to the Soret band were observed | Kd of Ni-binding ([3]; C-terminal metal-binding domain (MBD)): nanomolar Kd.
GloA: nickel metalloenzyme from E. coli, SEQ ID NO 6 (protein, listed as Helicobacter pylori) MDTPNKDDSIIRFSVSLQQNLLDELDNRIIKNGYSSRSELVRDMIREKLVEDNWAEDNPNDGSKIAVLVVIYDHHQRELNQRMIDIQHTSGTHVLCTTHIHMDGHNCLETIILKGNSLEIQRLQLEIGGLRGVKFAKLTKASSFEHNE | little or no binding and demetallation | little or no binding and demetallation | little or no binding and demetallation | Ni-binding: Ni (II) ions bound [3, 7]: 2 Ni (II),
